Data on three molecules can be found in paper PMC9820559, “Investigation of the Fuzzy Complex between RSV Nucleoprotein and Phosphoprotein to Optimize an Inhibition Assay by Fluorescence Polarization” (International Journal of Molecular Sciences, 2022).

One experiment addresses T1, RSV NNTD (Human respiratory syncytial virus A, UniProt P03418).
T1 construct: The N-terminal domain NNTD (residues 31–252), containing a C-terminal 6x histidine tag; 6xHis (C); made in house; host or cells: E. coli BL21(DE3)
In words: NMR titration of 15N-labeled NNTD (1H-15N HSQC chemical shift perturbations). Type of experiment: binding. The settings on record: 20 mM MES pH 6.5, 250 mM NaCl, 20 °C; single site model; mean of 26 individual values; read-out: mean Kd from residue-specific Kds. From the text: Here, as P protein is constitutively phosphorylated on Ser232 and Ser237 residues in cells, we first investigated the impact of phosphorylation on the affinity of the NNTD-PCtail complex. We performed an NMR titration experiment by adding increasing amounts of pP11 peptide, where Ser232 and Ser237 residues were replaced by O-phosphoserines (pSer, Figure 1A), to a solution of ^15N-labeled NNTD, and measured 2D ^1H-^15N HSQC spectra (Figure 2A). We worked in the same buffer as with P12. At pH 6.5, the pSer sidechains are expected to be mostly negatively charged. Addition of pP11 induced perturbations in the HSQC spectrum of NNTD, in particular chemical shift perturbations (CSPs). […] We measured combined ^1H and ^15N amide CSPs (Equation (1)) for NNTD signals in a fast chemical exchange regime, i.e., signals that shifted in the spectrum without broadening at intermediate titration points (e.g., Ile129 in Figure 2A). Significant CSPs were located in and around the P-binding pocket, confirming that pP11 binds to the previously determined P-binding epitope on NNTD (Figure 2B,C). […]
Overall, signals of bound NNTD were broader than those of unbound NNTD (Figure 2A). […] From chemical shift differences measured for these residues we determined an exchange rate kex of ~800 s^−1 (from Equation (3)) between free and bound NNTD, which indicates a fast dynamic process. […]

The next experiment deals with T2, RSV N-RNA complex (Human respiratory syncytial virus A, UniProt P03418).
T2 construct: Full-length N was produced by co-expression with the C-terminal domain of RSV P protein in E. coli BL21(DE3); made in house; host or cells: E. coli BL21(DE3), co-transformed with pET-N and pGEX-P(161–241)
In words: Fluorescence polarization inhibition of N-RNA binding to fluorescent probes. The settings on record: Ki, probe BCN11EE, [N-RNA] 1 µM; IC50-to-Ki server. From the text: We next performed inhibition experiments for the F11-(N-RNA) complex by M76 (Figure 4B). FP values decreased with increasing competitor concentration. At saturation, FP nearly reached the value of free F11, showing that the F11 peptide could be nearly completely displaced. Since the same concentration range was used for NNTD and N-RNA, poor solubility of M76 can be ruled out to explain the saturation observed before complete displacement of F11 in the presence NNTD (Figure 3C). This reinforces the hypothesis of a second binding site on NNTD, outside the canonical P-binding site. […]
To probe the potency of M76 as an inhibitor, we carried out competition experiments with the M76 molecule and several BCNn peptides. M76 was able to displace the fluorescent probes from N-RNA, and inhibition curves were obtained (Figure 8E). Since we used different N concentrations to have similar dynamic ranges of FP for the series of fluorescent peptides, we cannot directly compare M76 IC50s. However, Kis may be compared.
Fluorescence polarization measurements were carried out on a Paradigm Detection Platform (Beckman Coulter, Brea, CA, USA) operating with a microplate reader, a fluorescein detection cartridge (excitation range 485/20 nm, emission range 535/25 nm for both parallel and perpendicular components) and the SpectraMax Pro 6.1 software (Molecular Devices, San Jose, CA, USA). Samples were placed in polystyrene black flat bottom 96-well microplates (Cellstar, Greiner bio-one, Frickenhausen, Germany) with 20 µL final volume in each well. If not stated otherwise, the final concentration of fluorescent ligands was 200 nM. The buffer was either 20 mM MES pH 6.5, salt-free or with 250 mM NaCl, or 20 mM Tris pH 8.0 salt-free or with 100 mM NaCl, supplemented with 0.01% Brij-35. Mixing was done using the corresponding plate reader option. The temperature was set to 20 °C. Data were recorded in top reading mode. Measurements were done in triplicate and after an incubation time of 30 min, if not indicated otherwise. Fluorescence polarization (FP) in mFP units was determined from the parallel (I∥) and perpendicular (I⊥) components of the emitted light according to Equation (4). A grating factor G of 1.2 was determined using 1 nM fluorescein in 1 mM NaOH and assuming a theoretical FP of 27 mFP [48]. Background signal was measured from wells containing only buffer, and the mean value was subtracted from each I∥ and I⊥ component. (4) FP (mP)=1000×(I∥−G∗I⊥)/(I∥+G×I⊥)
To assess inhibition of a complex between a fluorescent probe and N protein by peptides or the M76 molecule, the concentration of N was set to work with an FP range comprised between FPmin and ~80% FPmax. Peptides were added from 1 or 2 mM stock solution in water at neutral pH. M76 was added from 10 or 20 mM stock solutions in ethanol or in DMSO. […] Inhibition data were fitted with Origin 7, and in parallel with the Excel solver module. All data were compatible with an absence of cooperativity. FPmax and FPmin were fitted, and the maximal inhibition %i,max was set to 100%. (11) %i=100×[1−(FP−FPmin)/(FPmax−FPmin)] (12) %i=%i,max×[inhibitor]/[inhibitor]+IC50
Inhibition constants Ki were calculated on the IC50-to-Ki converter for a protein-ligand-inhibitor system (https://bioinfo-abcc.ncifcrf.gov/IC50_Ki_Converter/index.php, accessed on 24 August 2022), assuming a competitive mechanism (Equation (13)). This tool takes into account the free concentrations of protein and ligand. (13) Ki=(IC50−[protein]/2)/([peptide]/Kd+1)

Experiment [1] concerns the target T3, RSV nucleoprotein N-terminal domain NNTD (residues 31–252) (human respiratory syncytial virus, UniProt P03418 31-252).
T3 construct: N-terminal domain of human RSV nucleoprotein N, residues 31-252; 15N-labelled for the NMR titration; also called N(31–252); 15N-NNTD; source: E. coli BL21(DE3), pET-N(31–252), purified as described previously [21]
T3 sequence (looked up): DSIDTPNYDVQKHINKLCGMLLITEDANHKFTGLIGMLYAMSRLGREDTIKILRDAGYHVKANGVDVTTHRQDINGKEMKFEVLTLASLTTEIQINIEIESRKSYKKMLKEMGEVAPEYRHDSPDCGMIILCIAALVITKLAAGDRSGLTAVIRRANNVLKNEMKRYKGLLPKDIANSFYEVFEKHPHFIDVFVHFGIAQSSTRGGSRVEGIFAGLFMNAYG
In words: fluorescence polarisation; 200 nM F11, NNTD varied; 20 mM MES pH 6.5 without salt, 0.01% Brij-35; 20 °C; single site plus a linear contribution. The settings on record: both partners purified.

Experiment [2] has as its target T3, RSV nucleoprotein N-terminal domain …. The experiment in a line: fluorescence polarisation; 200 nM F11, NNTD 0.1–120 µM; 20 mM MES pH 6.5, 250 mM NaCl, 0.01% Brij-35; 20 °C; single site model; saturation not reached. The settings on record: both partners purified.
Experiment [3] has as its target T4, RSV N-RNA complex (full-length N protein in ring-shaped complexes with bacterial RNA) (human respiratory syncytial virus, UniProt P03418 1-391).
T4 construct: human RSV nucleoprotein N, full length; concentrations are of N protomer; also called N-RNA rings; source: in lysate for the co-purification; purified (glutathione-Sepharose, thrombin, Superdex 200) as N-RNA complex; copies: 10-11
T4 sequence (looked up): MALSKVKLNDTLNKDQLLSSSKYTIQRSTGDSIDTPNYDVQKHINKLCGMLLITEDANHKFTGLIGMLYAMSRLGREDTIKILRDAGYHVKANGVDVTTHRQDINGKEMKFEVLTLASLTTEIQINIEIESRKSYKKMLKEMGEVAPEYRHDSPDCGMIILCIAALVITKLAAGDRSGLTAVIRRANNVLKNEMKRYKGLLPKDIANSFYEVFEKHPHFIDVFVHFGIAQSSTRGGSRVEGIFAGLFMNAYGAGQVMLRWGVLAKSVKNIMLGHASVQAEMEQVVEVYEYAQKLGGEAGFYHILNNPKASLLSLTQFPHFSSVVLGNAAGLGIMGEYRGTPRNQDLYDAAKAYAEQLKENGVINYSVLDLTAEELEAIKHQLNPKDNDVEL
The experiment in a line: fluorescence polarisation; competition: unlabeled pP11 varied against 200 nM BCN_(11EE) on 1 µM N-RNA; Tris pH 8 buffer; Hill equation; Ki from the IC50-to-Ki server. Conditions: both partners purified.

Square brackets hold non-standard residues; d marks the D form. Ends that are not written are not given here. Peptide text beside a SMILES is read from it. * marks the point of attachment. FITC = O=C1OC2(c3ccc(O)cc3Oc3cc(O)ccc32)c2ccc(NC(=S)*)cc21; pS = N[C@@H](COP(=O)(O)O)C(=O)O

For `CC(C)C[C@H](NC(=O)[C@H](COP(=O)(O)O)NC(=O)[C@H](CC(C)C)NC(=O)[C@H](CC(=O)O)NC(=O)[C@H](CC(N)=O)NC(=O)[C@H](CC(=O)O)NC(=O)[C@H](COP(=O)(O)O)NC(=O)[C@@H](N)CC(=O)O)C(=O)N[C@@H](CCC(=O)O)C(=O)N[C@@H](CC(=O)O)C(=O)N[C@@H](Cc1ccccc1)C(=O)O` [pP11] (H-D[pS]DNDL[pS]LEDF-OH), at RSV NNTD, the Kd worked out at 17 ± 4.5 µM. The molecule also gave an inhibition constant (Ki) at RSV N-RNA complex of 1.4 µM.

B1: F11 (fluorescein-5-thiourea-labelled RSV P11 peptide) (peptide)
peptide: {FITC}-DSDNDLSLEDF
notes: C-terminal 11 residues of RSV phosphoprotein P; also called F_(11SS); FTU-P11; source: bought P11 peptide (GeneCust), FITC coupled in solution, HPLC purified
On to B1, for which the Kd in experiment [1] came out at 0.6 ± 0.1 µM; in experiment [2], 90 ± 15 µM.

B2: pP11 peptide (RSV P C-terminal 11-mer with O-phosphoserines at 232 and 237) (peptide)
peptide: D[pS]DNDL[pS]LEDF
notes: C-terminal 11 residues of RSV phosphoprotein P with Ser232 and Ser237 as O-phosphoserines; source: bought: GeneCust (synthetic peptide, >95% purity)
For B2, the 50% inhibitory concentration (IC50) in experiment [3] is 6.9 ± 1.2 µM.
